Measurements as given in PMC3191170, “Epigenetic Control of Viral Life-Cycle by a DNA-Methylation Dependent Transcription Factor”.

Legend:
Settings in all cases: protein: ivt; chain copies: 2; label: 32P
Zta (BZLF1, ZEBRA, EB1) [1] = biological target: T1, Zta (BZLF1, ZEBRA, EB1) (Epstein-Barr virus (B95-8 strain), UniProt P03206 1-245); assay: EMSA; CpG methylated; EMSA with wheat germ in vitro translated Zta and 32P-labelled ds oligonucleotides; buffer, salt, pH and temperature not given (as in ref 39)
T1 sequence (P03206 whole entry): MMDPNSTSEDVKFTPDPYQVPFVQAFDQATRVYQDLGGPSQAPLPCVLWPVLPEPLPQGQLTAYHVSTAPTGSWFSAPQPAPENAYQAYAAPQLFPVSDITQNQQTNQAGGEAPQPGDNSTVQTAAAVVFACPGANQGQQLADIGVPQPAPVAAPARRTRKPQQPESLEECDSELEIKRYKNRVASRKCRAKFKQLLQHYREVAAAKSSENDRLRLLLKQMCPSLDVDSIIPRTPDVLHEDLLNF

Zta (BZLF1, ZEBRA, EB1) [2] = biological target: T1, Zta (BZLF1, ZEBRA, EB1); assay: EMSA; EMSA with wheat germ in vitro translated Zta and 32P-labelled ds oligonucleotides; buffer, salt, pH and temperature not given (as in ref 39)
Zta (BZLF1, ZEBRA, EB1) [3] = biological target: T1, Zta (BZLF1, ZEBRA, EB1); assay: EMSA; unmethylated; class III; EMSA with wheat germ in vitro translated Zta and 32P-labelled ds oligonucleotides; buffer, salt, pH and temperature not given (as in ref 39)

B1: Rp (-114) / CpG5 O, methylated (dsDNA)
DNA 1: CACTCATACTTAAGCGATGCTGATGCA
DNA 2: TGCATCAGCATCGCTTAAGTATGAGTG
modifications: 5mC at CpG, both strands (M.SssI or synthesis)
Zta (BZLF1, ZEBRA, EB1) [1]
  binding result: binds

B2: Zp (-96) (dsDNA)
DNA 1: TAAATTTAGGTGTGTCTATGAGGTACA
DNA 2: TGTACCTCATAGACACACCTAAATTTA
Zta (BZLF1, ZEBRA, EB1) [2]
  binding result: binds

B3: Rp (-114) / CpG5 O, unmethylated (dsDNA)
DNA 1: CACTCATACTTAAGCGATGCTGATGCA
DNA 2: TGCATCAGCATCGCTTAAGTATGAGTG
Zta (BZLF1, ZEBRA, EB1) [3]
  binding result: no binding
